From EP2658867B1 (Avidbiotics Corp., dated 2018)

B1: M13 phage pKK91 displaying MICA α3 domain with His10sp in loop 3 (designed binder, not shown: large carriers)
chain: TVPPMVNVTRSEASEGNITVTCRASGFYPWNITLSWRQDGVSLSHDTQQWGDVLPDGNGTYQTWVATRISGGSGGGSHHHHHHHHHHSGGSGGGCYMEHSGNHSTHPVPSGK
B2: soluble MICA generated by pKK35 (His10sp in loop 3) (designed binder)
chain: EPHSLRYNLTVLSWDGSVQSGFLTEVHLDGQPFLRCDRQKCRAKPQGQWAEDVLGNKTWDRETRDLTGNGKDLRMTLAHIKDQKEGLHSLQEIRVCEIHEDNSTRSSQHFYYDGELFLSQNLETKEWTMPQSSRAQTLAMNVRNFLKEDAMKTKTHYHAMHADCLQELRRYLKSGVVLRRTVPPMVNVTRSEASEGNITVTCRASGFYPWNITLSWRQDGVSLSHDTQQWGDVLPDGNGTYQTWVATRISGGSGGGSHHHHHHHHHHSGGSGGGCYMEHSGNHSTHPVPSGK
B3: soluble MICA generated by pKK48 (extended loop 3.2sp in loop 3) (designed binder)
chain: EPHSLRYNLTVLSWDGSVQSGFLTEVHLDGQPFLRCDRQKCRAKPQGQWAEDVLGNKTWDRETRDLTGNGKDLRMTLAHIKDQKEGLHSLQEIRVCEIHEDNSTRSSQHFYYDGELFLSQNLETKEWTMPQSSRAQTLAMNVRNFLKEDAMKTKTHYHAMHADCLQELRRYLKSGVVLRRTVPPMVNVTRSEASEGNITVTCRASGFYPWNITLSWRQDGVSLSHDTQQWGDVLPDGNGTYQTWVATRISGGSGGGSTSRGDHPRTQSGGSGGGCYMEHSGNHSTHPVPSGK
B4: soluble MICA generated by pKK50 (extended loop 5.1sp in loop 3) (designed binder)
chain: EPHSLRYNLTVLSWDGSVQSGFLTEVHLDGQPFLRCDRQKCRAKPQGQWAEDVLGNKTWDRETRDLTGNGKDLRMTLAHIKDQKEGLHSLQEIRVCEIHEDNSTRSSQHFYYDGELFLSQNLETKEWTMPQSSRAQTLAMNVRNFLKEDAMKTKTHYHAMHADCLQELRRYLKSGVVLRRTVPPMVNVTRSEASEGNITVTCRASGFYPWNITLSWRQDGVSLSHDTQQWGDVLPDGNGTYQTWVATRISGGSGGGSVTRGDTFTQSSGGSGGGCYMEHSGNHSTHPVPSGK
B5: soluble MICA generated by pKK49 (extended loop 3.3sp in loop 3) (designed binder)
chain: EPHSLRYNLTVLSWDGSVQSGFLTEVHLDGQPFLRCDRQKCRAKPQGQWAEDVLGNKTWDRETRDLTGNGKDLRMTLAHIKDQKEGLHSLQEIRVCEIHEDNSTRSSQHFYYDGELFLSQNLETKEWTMPQSSRAQTLAMNVRNFLKEDAMKTKTHYHAMHADCLQELRRYLKSGVVLRRTVPPMVNVTRSEASEGNITVTCRASGFYPWNITLSWRQDGVSLSHDTQQWGDVLPDGNGTYQTWVATRISGGSGGGSRVPRGDSDLTSGGSGGGCYMEHSGNHSTHPVPSGK
B6: soluble MICA generated by pKK51 (extended loop 5.3sp in loop 3) (designed binder)
chain: EPHSLRYNLTVLSWDGSVQSGFLTEVHLDGQPFLRCDRQKCRAKPQGQWAEDVLGNKTWDRETRDLTGNGKDLRMTLAHIKDQKEGLHSLQEIRVCEIHEDNSTRSSQHFYYDGELFLSQNLETKEWTMPQSSRAQTLAMNVRNFLKEDAMKTKTHYHAMHADCLQELRRYLKSGVVLRRTVPPMVNVTRSEASEGNITVTCRASGFYPWNITLSWRQDGVSLSHDTQQWGDVLPDGNGTYQTWVATRISGGSGGGSHLARGDDLTYSGGSGGGCYMEHSGNHSTHPVPSGK
B7: soluble MICA generated by pKK36 (loop 3.1 in loop 1) (designed binder)
chain: HHHHHHEPHSLRYNLTVLSWDGSVQSGFLTEVHLDGQPFLRCDRQKCRAKPQGQWAEDVLGNKTWDRETRDLTGNGKDLRMTLAHIKDQKEGLHSLQEIRVCEIHEDNSTRSSQHFYYDGELFLSQNLETEEWTMPQSSRAQTLAMNVRNFLKEDAMKTKTHYHAMHADCLQELRRYLKSGVVLRRTVPPMVNVTSRGDHPRTQVTCRASGFYPWNITLSWRQDGVSLSHDTQQWGDVLPDGNGTYQTWVATRICQGEEQRFTCYMEHSGNHSTHPVPSGK
B8: soluble MICA generated by pKK41 (loop 5.2 in loop 1) (designed binder)
chain: HHHHHHEPHSLRYNLTVLSWDGSVQSGFLTEVHLDGQPFLRCDRQKCRAKPQGQWAEDVLGNKTWDRETRDLTGNGKDLRMTLAHIKDQKEGLHSLQEIRVCEIHEDNSTRSSQHFYYDGELFLSQNLETEEWTMPQSSRAQTLAMNVRNFLKEDAMKTKTHYHAMHADCLQELRRYLKSGVVLRRTVPPMVNVTRGDTFTQSVTCRASGFYPWNITLSWRQDGVSLSHDTQQWGDVLPDGNGTYQTWVATRICQGEEQRFTCYMEHSGNHSTHPVPSGK
B9: soluble MICA generated by pKK37 (loop 3.2 in loop 1) (designed binder)
chain: HHHHHHEPHSLRYNLTVLSWDGSVQSGFLTEVHLDGQPFLRCDRQKCRAKPQGQWAEDVLGNKTWDRETRDLTGNGKDLRMTLAHIKDQKEGLHSLQEIRVCEIHEDNSTRSSQHFYYDGELFLSQNLETEEWTMPQSSRAQTLAMNVRNFLKEDAMKTKTHYHAMHADCLQELRRYLKSGVVLRRTVPPMVNVTRTSRGDHPRTQVTCRASGFYPWNITLSWRQDGVSLSHDTQQWGDVLPDGNGTYQTWVATRICQGEEQRFTCYMEHSGNHSTHPVPSGK
B10: M13 phage pKK92 displaying MICA α3 domain with loop 3.1 in loop 1 (designed binder, not shown: large carriers)
chain: TVPPMVNVTSRGDHPRTQVTCRASGFYPWNITLSWRQDGVSLSHDTQQWGDVLPDGNGTYQTWVATRICQGEEQRFTCYMEHSGNHSTHPVPSGK
B11: soluble MICA generated by pKK44 (extended loop 3.2sp in loop 1) (designed binder)
chain: HHHHHHEPHSLRYNLTVLSWDGSVQSGFLTEVHLDGQPFLRCDRQKCRAKPQGQWAEDVLGNKTWDRETRDLTGNGKDLRMTLAHIKDQKEGLHSLQEIRVCEIHEDNSTRSSQHFYYDGELFLSQNLETEEWTMPQSSRAQTLAMNVRNFLKEDAMKTKTHYHAMHADCLQELRRYLKSGVVLRRTVPPMVNVTSGGSGGGSTSRGDHPRTQSGGSGGGVTCRASGFYPWNITLSWRQDGVSLSHDTQQWGDVLPDGNGTYQTWVATRICQGEEQRFTCYMEHSGNHSTHPVPSGK
B12: soluble MICA generated by pKK45 (extended loop 3.3sp in loop 1) (designed binder)
chain: HHHHHHEPHSLRYNLTVLSWDGSVQSGFLTEVHLDGQPFLRCDRQKCRAKPQGQWAEDVLGNKTWDRETRDLTGNGKDLRMTLAHIKDQKEGLHSLQEIRVCEIHEDNSTRSSQHFYYDGELFLSQNLETEEWTMPQSSRAQTLAMNVRNFLKEDAMKTKTHYHAMHADCLQELRRYLKSGVVLRRTVPPMVNVTSGGSGGGSRVPRGDSDLTSGGSGGGVTCRASGFYPWNITLSWRQDGVSLSHDTQQWGDVLPDGNGTYQTWVATRICQGEEQRFTCYMEHSGNHSTHPVPSGK
B13: M13 phage pKK93 displaying MICA α3 domain with loop 3.2 in loop 1 (designed binder, not shown: large carriers)
chain: TVPPMVNVTRTSRGDHPRTQVTCRASGFYPWNITLSWRQDGVSLSHDTQQWGDVLPDGNGTYQTWVATRICQGEEQRFTCYMEHSGNHSTHPVPSGK
B14: soluble MICA generated by pKK38 (loop 3.3 in loop 1) (designed binder)
chain: HHHHHHEPHSLRYNLTVLSWDGSVQSGFLTEVHLDGQPFLRCDRQKCRAKPQGQWAEDVLGNKTWDRETRDLTGNGKDLRMTLAHIKDQKEGLHSLQEIRVCEIHEDNSTRSSQHFYYDGELFLSQNLETEEWTMPQSSRAQTLAMNVRNFLKEDAMKTKTHYHAMHADCLQELRRYLKSGVVLRRTVPPMVNVTRVPRGDSDLTVTCRASGFYPWNITLSWRQDGVSLSHDTQQWGDVLPDGNGTYQTWVATRICQGEEQRFTCYMEHSGNHSTHPVPSGK
B15: soluble MICA generated by pKK42 (loop 5.3 in loop 1) (designed binder)
chain: HHHHHHEPHSLRYNLTVLSWDGSVQSGFLTEVHLDGQPFLRCDRQKCRAKPQGQWAEDVLGNKTWDRETRDLTGNGKDLRMTLAHIKDQKEGLHSLQEIRVCEIHEDNSTRSSQHFYYDGELFLSQNLETEEWTMPQSSRAQTLAMNVRNFLKEDAMKTKTHYHAMHADCLQELRRYLKSGVVLRRTVPPMVNVTHLARGDDLTYVTCRASGFYPWNITLSWRQDGVSLSHDTQQWGDVLPDGNGTYQTWVATRICQGEEQRFTCYMEHSGNHSTHPVPSGK
B16: soluble MICA generated by pKK40 (loop 5.1 in loop 1) (designed binder)
chain: HHHHHHEPHSLRYNLTVLSWDGSVQSGFLTEVHLDGQPFLRCDRQKCRAKPQGQWAEDVLGNKTWDRETRDLTGNGKDLRMTLAHIKDQKEGLHSLQEIRVCEIHEDNSTRSSQHFYYDGELFLSQNLETEEWTMPQSSRAQTLAMNVRNFLKEDAMKTKTHYHAMHADCLQELRRYLKSGVVLRRTVPPMVNVTVTRGDTFTQSVTCRASGFYPWNITLSWRQDGVSLSHDTQQWGDVLPDGNGTYQTWVATRICQGEEQRFTCYMEHSGNHSTHPVPSGK
B17: soluble MICA generated by pKK39 (loop 3.4 in loop 1) (designed binder)
chain: HHHHHHEPHSLRYNLTVLSWDGSVQSGFLTEVHLDGQPFLRCDRQKCRAKPQGQWAEDVLGNKTWDRETRDLTGNGKDLRMTLAHIKDQKEGLHSLQEIRVCEIHEDNSTRSSQHFYYDGELFLSQNLETEEWTMPQSSRAQTLAMNVRNFLKEDAMKTKTHYHAMHADCLQELRRYLKSGVVLRRTVPPMVNVTRSARGDSDHRVTCRASGFYPWNITLSWRQDGVSLSHDTQQWGDVLPDGNGTYQTWVATRICQGEEQRFTCYMEHSGNHSTHPVPSGK

What was measured:
[1] = biological target: T1, integrin αVβ5 (UniProt P06756 31-992; P18084 24-719); assay: phage ELISA, integrin coated, anti-M13-HRP
T1 construct: Coated on the ELISA plate

[2] = biological target: T2, integrin αVβ3 (UniProt P06756 31-992; P05106 27-718); assay: phage ELISA, integrin coated, anti-M13-HRP
T2 construct: Coated on the ELISA plate

[3] = biological target: T1, integrin αVβ5; assay: ELISA, integrin coated, anti-MICA-HRP
[4] = biological target: T2, integrin αVβ3; assay: ELISA, integrin coated, anti-MICA-HRP

T2 sequence (P06756 31-992, chain 1 of 2): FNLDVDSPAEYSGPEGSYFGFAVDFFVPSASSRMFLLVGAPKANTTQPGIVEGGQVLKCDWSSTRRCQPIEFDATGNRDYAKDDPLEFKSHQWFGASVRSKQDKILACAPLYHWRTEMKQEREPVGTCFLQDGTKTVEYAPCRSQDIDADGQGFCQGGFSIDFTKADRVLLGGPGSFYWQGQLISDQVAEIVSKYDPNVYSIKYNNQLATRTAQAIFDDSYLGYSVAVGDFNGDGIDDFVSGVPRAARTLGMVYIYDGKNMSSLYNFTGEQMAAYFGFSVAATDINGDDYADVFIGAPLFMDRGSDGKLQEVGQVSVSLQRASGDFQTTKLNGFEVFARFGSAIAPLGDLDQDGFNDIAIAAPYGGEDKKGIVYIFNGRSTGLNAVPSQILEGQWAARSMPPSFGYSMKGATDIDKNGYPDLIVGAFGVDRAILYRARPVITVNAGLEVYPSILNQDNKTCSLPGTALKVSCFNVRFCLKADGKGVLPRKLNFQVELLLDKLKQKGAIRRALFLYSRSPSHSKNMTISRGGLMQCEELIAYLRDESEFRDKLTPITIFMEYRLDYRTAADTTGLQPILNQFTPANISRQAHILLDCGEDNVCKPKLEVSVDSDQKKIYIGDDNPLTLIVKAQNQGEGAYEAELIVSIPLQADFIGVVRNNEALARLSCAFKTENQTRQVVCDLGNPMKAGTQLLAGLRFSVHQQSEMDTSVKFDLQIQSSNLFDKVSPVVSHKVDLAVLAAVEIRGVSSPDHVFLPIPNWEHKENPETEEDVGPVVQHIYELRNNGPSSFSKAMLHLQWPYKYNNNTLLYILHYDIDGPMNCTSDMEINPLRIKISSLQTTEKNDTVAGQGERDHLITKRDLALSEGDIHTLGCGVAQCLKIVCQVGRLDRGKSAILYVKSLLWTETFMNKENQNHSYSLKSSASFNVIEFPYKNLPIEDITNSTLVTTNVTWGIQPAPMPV
T2 sequence (P05106 27-718, chain 2 of 2): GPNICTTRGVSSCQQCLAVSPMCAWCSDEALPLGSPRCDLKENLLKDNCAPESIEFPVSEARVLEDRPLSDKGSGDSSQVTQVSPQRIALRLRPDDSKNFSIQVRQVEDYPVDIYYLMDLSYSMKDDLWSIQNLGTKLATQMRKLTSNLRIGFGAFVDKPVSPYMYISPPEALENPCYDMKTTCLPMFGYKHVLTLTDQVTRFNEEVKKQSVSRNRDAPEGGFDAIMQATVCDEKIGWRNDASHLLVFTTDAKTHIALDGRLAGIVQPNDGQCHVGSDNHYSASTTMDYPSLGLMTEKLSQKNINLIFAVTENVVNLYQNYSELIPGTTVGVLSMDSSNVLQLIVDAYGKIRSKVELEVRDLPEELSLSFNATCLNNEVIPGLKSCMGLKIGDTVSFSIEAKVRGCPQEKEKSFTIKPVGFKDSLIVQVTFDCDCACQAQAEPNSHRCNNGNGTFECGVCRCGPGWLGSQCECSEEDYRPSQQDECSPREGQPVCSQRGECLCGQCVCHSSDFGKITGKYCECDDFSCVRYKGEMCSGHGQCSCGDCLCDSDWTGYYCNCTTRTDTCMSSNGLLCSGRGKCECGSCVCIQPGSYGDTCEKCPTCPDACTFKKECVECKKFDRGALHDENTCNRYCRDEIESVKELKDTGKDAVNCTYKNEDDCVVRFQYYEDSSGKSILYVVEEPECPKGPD
T1 sequence (P06756 31-992, chain 1 of 2): as the sequence (P06756 31-992, chain 1 of 2) above
T1 sequence (P18084 24-719, chain 2 of 2): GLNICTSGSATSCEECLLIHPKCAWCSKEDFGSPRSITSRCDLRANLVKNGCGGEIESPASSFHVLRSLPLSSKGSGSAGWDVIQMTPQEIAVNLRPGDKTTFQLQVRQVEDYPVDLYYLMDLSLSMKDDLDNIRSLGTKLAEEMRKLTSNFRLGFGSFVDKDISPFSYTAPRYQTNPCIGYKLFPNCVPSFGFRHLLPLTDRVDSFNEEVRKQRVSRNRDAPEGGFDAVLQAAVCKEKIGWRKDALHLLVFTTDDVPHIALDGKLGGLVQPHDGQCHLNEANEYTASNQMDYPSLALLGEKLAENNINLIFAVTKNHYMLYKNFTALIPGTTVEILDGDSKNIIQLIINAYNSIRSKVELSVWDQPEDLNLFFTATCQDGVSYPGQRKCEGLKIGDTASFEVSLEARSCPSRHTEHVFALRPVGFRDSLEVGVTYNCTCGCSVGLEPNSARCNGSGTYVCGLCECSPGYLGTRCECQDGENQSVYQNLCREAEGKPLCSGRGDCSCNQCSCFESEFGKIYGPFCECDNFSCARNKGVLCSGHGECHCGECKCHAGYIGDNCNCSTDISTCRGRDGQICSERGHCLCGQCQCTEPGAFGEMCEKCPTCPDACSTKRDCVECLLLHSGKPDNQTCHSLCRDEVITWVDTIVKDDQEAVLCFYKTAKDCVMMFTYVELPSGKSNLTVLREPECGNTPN

Binder | signal [1] | signal [2] | signal [3] | signal/ng [3] | signal [4] | signal/ng [4] | signal ([1]; record 2) | signal ([2]; record 2)
B1 | 0.078 OD | 0.303 OD | – | – | – | – | – | –
B2 | – | – | 0.392 OD | 2.31 signal/ng | 0.419 OD | 2.46 signal/ng | – | –
B3 | – | – | 0.604 OD | 7.68 signal/ng | 0.478 OD | 6.08 signal/ng | – | –
B4 | – | – | 0.721 OD | 7.73 signal/ng | 0.546 OD | 5.85 signal/ng | – | –
B5 | – | – | 0.478 OD | 5.51 signal/ng | 0.508 OD | 5.86 signal/ng | – | –
B6 | – | – | 1.05 OD | 10.9 signal/ng | 0.694 OD | 7.2 signal/ng | – | –
B7 | – | – | 0.526 OD | 18.1 signal/ng | 0.55 OD | 19 signal/ng | – | –
B8 | – | – | 0.65 OD | 22.4 signal/ng | 0.516 OD | 17.7 signal/ng | – | –
B9 | – | – | 0.779 OD | 22.4 signal/ng | 0.777 OD | 22.4 signal/ng | – | –
B10 | 1.32 OD | 0.858 OD | – | – | – | – | – | –
B11 | – | – | 0.46 OD | 10 signal/ng | 0.41 OD | 8.92 signal/ng | – | –
B12 | – | – | 0.41 OD | 9.92 signal/ng | 0.393 OD | 9.51 signal/ng | – | –
B13 | 0.291 OD | 0.284 OD | – | – | – | – | 0.774 OD | 0.616 OD
B14 | – | – | 0.291 OD | 30.7 signal/ng | 0.291 OD | 30.7 signal/ng | – | –
B15 | – | – | 0.565 OD | 22.8 signal/ng | 0.526 OD | 21.2 signal/ng | – | –
B16 | – | – | 0.675 OD | 27.1 signal/ng | 0.485 OD | 19.5 signal/ng | – | –
B17 | – | – | 0.528 OD | 19.7 signal/ng | 0.482 OD | 18 signal/ng | – | –
